Source: patent publication US20230212288A1 (published 2023)

Biological target: human CD3 receptor complex (human, UniProt P07766 23-207; P09693 23-182; P04234 22-171)
Assay: cell-based or functional assay

human CD3 receptor complex, sequence (P07766 23-207, chain 1 of 3): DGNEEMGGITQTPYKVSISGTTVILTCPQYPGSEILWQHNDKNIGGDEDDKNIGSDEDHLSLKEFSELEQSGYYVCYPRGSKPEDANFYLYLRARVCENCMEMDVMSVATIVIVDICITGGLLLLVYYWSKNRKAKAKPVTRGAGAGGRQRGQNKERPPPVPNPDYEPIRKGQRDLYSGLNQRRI
human CD3 receptor complex, sequence (P09693 23-182, chain 2 of 3): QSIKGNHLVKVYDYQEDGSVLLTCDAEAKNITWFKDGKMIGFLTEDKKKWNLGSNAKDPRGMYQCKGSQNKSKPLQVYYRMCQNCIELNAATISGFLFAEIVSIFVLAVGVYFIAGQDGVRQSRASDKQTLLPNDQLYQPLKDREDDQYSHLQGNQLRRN
human CD3 receptor complex, sequence (P04234 22-171, chain 3 of 3): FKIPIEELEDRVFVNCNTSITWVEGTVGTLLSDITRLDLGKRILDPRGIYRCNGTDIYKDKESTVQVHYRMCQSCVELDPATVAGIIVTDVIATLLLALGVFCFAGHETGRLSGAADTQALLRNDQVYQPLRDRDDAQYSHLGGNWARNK

Binder | Activity (EC50 for activation of Jurkat line cells, pM)
309_01_A02 (bispecific antibody) DIQLTQTPASLAVSLGQRATISCKASQSVDYDGDSYLNWYQQIPGQPPKLLIYDASNLVSGIPPRFSGSGSGTDFTLNIHPVEKVDAATYHCQQSTEDPWTFGGGTKLEIKGGSGGAMAEVQLVESGGGLVKPGGSLRLSCAASGFTFSSYSMNWVRQAPGKGLEWVSSISSSSSYIYYADSVKGRFTISRDNAKNSLYLQMNSLRAEDTAVYYCARSSRIQAGMDVWGQGTLVTVSSGGGGSGGGGSGGGASNFMLTQPHSVSESPGKTVTISCTRSSGTIASTYVQWYQQRPGSSPTTVIYEDNQRPSGVPDRFSGSIDSSSNSASLTISGLKTEDAADYFCQSYDSNNRVFGGGTKVTVLGQPAAAGGGGSQVQLQQSGAELVRPGSSVKISCKASGYAFSSYWMNWVKQRPGQGLEWIGQIWPGDGDTNYNGKFKGKATLTADESSSTAYMQLSSLASEDSAVYFCARRETTTVGRYYYAMDYWGQGTSVTVSSASAAVECPPCPAPPVAGPSVFLFPPKPKDTLMISRTPEVTCVVVDVSHEDPEVQFNWYVDGVEVHNAKTKPREEQFNSTFRVVSVLTVVHQDWLNGKEYKCKVSNKGLPAPIEKTISKTKGQPREPQVYTLPPSREEMTKNQVSLTCLVKGFYPSDIAVEWESNGQPENNYKTTPPMLDSDGSFFLYSKLTVDKSRWQQGNVFSCSVMHEALHNHYTQKSLSLSPGK | 7.9 pM
410_01_C03 (bispecific antibody) DIQLTQTPASLAVSLGQRATISCKASQSVDYDGDSYLNWYQQIPGQPPKLLIYDASNLVSGIPPRFSGSGSGTDFTLNIHPVEKVDAATYHCQQSTEDPWTFGGGTKLEIKGGSGGAMAQVQLQQWGAGLLKPSETLSLTCAVYGGSFSGYYWSWIRQPPGKGLEWIGEINHSGSTNYNPSLKSRVTISVDTSKNQFSLKLSSVTAADTAVYYCARATRNGAFDYWGQGTLVTVSSGGGGSGGGGSGGGASNFMLTQPHSVSESPGKTVTISCTRSSGRIASNYVQWYQQRPGSSPTTVIYEDNQRPSGVPDRFSGSIDSSSNSASLTISGLKTEDEADYYCQSYDSSNVVFGGGTQLTVLGQPAAAGGGGSQVQLQQSGAELVRPGSSVKISCKASGYAFSSYWMNWVKQRPGQGLEWIGQIWPGDGDTNYNGKFKGKATLTADESSSTAYMQLSSLASEDSAVYFCARRETTTVGRYYYAMDYWGQGTSVTVSSASAAVECPPCPAPPVAGPSVFLFPPKPKDTLMISRTPEVTCVVVDVSHEDPEVQFNWYVDGVEVHNAKTKPREEQFNSTFRVVSVLTVVHQDWLNGKEYKCKVSNKGLPAPIEKTISKTKGQPREPQVYTLPPSREEMTKNQVSLTCLVKGFYPSDIAVEWESNGQPENNYKTTPPMLDSDGSFFLYSKLTVDKSRWQQGNVFSCSVMHEALHNHYTQKSLSLSPGK | 3 pM
410_01_C09 (bispecific antibody) DIQLTQTPASLAVSLGQRATISCKASQSVDYDGDSYLNWYQQIPGQPPKLLIYDASNLVSGIPPRFSGSGSGTDFTLNIHPVEKVDAATYHCQQSTEDPWTFGGGTKLEIKGGSGGAMAEVQLVQSGAEVKKPGASVKVSCKASGYTFTSYYMYWVRQAPGQGLEWMGRINPNSGGTNYAQKFQGRVTMTRDTSISTAYMELSRLRSDDTAVYYCARPSRYSNYVDWGQGTLVTVSSGGGGSGGGGSGGGASNFMLTQPHSVSESPGKTVTISCTRSSGSIASNYVQWYQQRPGSSPTTVIYEDNQRPSGVPDRFSGSIDSSSNSASLTISGLKTEDEADYYCQSYDSRWIWVSGGGTKVTVLGQPAAAGGGGSQVQLQQSGAELVRPGSSVKISCKASGYAFSSYWMNWVKQRPGQGLEWIGQIWPGDGDTNYNGKFKGKATLTADESSSTAYMQLSSLASEDSAVYFCARRETTTVGRYYYAMDYWGQGTSVTVSSASAAVECPPCPAPPVAGPSVFLFPPKPKDTLMISRTPEVTCVVVDVSHEDPEVQFNWYVDGVEVHNAKTKPREEQFNSTFRVVSVLTVVHQDWLNGKEYKCKVSNKGLPAPIEKTISKTKGQPREPQVYTLPPSREEMTKNQVSLTCLVKGFYPSDIAVEWESNGQPENNYKTTPPMLDSDGSFFLYSKLTVDKSRWQQGNVFSCSVMHEALHNHYTQKSLSLSPGK | 2.2 pM
418_01_C05 (bispecific antibody) DIQLTQTPASLAVSLGQRATISCKASQSVDYDGDSYLNWYQQIPGQPPKLLIYDASNLVSGIPPRFSGSGSGTDFTLNIHPVEKVDAATYHCQQSTEDPWTFGGGTKLEIKGGSGGAMAEVQLVESGGGVVQPGRSLRLSCAASGFTFSSYGMHWVRQAPGKGLEWVSYINSRSSTIYYADSVKGRFTISRDNAKNSLYLQMNSLRDEDTAVYYCAKDKPLSGYAFDIWGQGTTVTVSSGGGGSGGGGSGGGASNFMLTQPHSVSESPGKTVTISCTRSSGSIASNFVQWYQQRPGRAPTIVIFDDDQRPSGVPDRFSGSIDRSSDSASLSISGLKTEDEADYYCQSYATRTQGVVFGGGTKVTVLGQPAAAGGGGSQVQLQQSGAELVRPGSSVKISCKASGYAFSSYWMNWVKQRPGQGLEWIGQIWPGDGDTNYNGKFKGKATLTADESSSTAYMQLSSLASEDSAVYFCARRETTTVGRYYYAMDYWGQGTSVTVSSASAAVECPPCPAPPVAGPSVFLFPPKPKDTLMISRTPEVTCVVVDVSHEDPEVQFNWYVDGVEVHNAKTKPREEQFNSTFRVVSVLTVVHQDWLNGKEYKCKVSNKGLPAPIEKTISKTKGQPREPQVYTLPPSREEMTKNQVSLTCLVKGFYPSDIAVEWESNGQPENNYKTTPPMLDSDGSFFLYSKLTVDKSRWQQGNVFSCSVMHEALHNHYTQKSLSLSPGK | 1.5 pM
418_03_E12 (bispecific antibody) DIQLTQTPASLAVSLGQRATISCKASQSVDYDGDSYLNWYQQIPGQPPKLLIYDASNLVSGIPPRFSGSGSGTDFTLNIHPVEKVDAATYHCQQSTEDPWTFGGGTKLEIKGGSGGAMAQVQLVESGGGVVQPGRSLRLSCAASGFTFSSYGMHWVRQAPGKGLEWVSSISSSSSYIYYADSVKGRFTISRDNAKNSLYLQMNSLRADDTAVYYCARRSFSSVFADYWGQGTLVTVSSGGGGSGGGGSGGGASNFMLTQPHSVSESPGKTVTISCTRSRGSIASNYVQWYQQRPGRAPTIVIFDDDQRPSGVPDRFSGSIDRSSDSASLRISGLKTEDEADYYCQSYATRSQSVVFGGGTKLTVLGQPAAAGGGGSQVQLQQSGAELVRPGSSVKISCKASGYAFSSYWMNWVKQRPGQGLEWIGQIWPGDGDTNYNGKFKGKATLTADESSSTAYMQLSSLASEDSAVYFCARRETTTVGRYYYAMDYWGQGTSVTVSSASAAVECPPCPAPPVAGPSVFLFPPKPKDTLMISRTPEVTCVVVDVSHEDPEVQFNWYVDGVEVHNAKTKPREEQFNSTFRVVSVLTVVHQDWLNGKEYKCKVSNKGLPAPIEKTISKTKGQPREPQVYTLPPSREEMTKNQVSLTCLVKGFYPSDIAVEWESNGQPENNYKTTPPMLDSDGSFFLYSKLTVDKSRWQQGNVFSCSVMHEALHNHYTQKSLSLSPGK | 1 pM
418_03_H01 (bispecific antibody) DIQLTQTPASLAVSLGQRATISCKASQSVDYDGDSYLNWYQQIPGQPPKLLIYDASNLVSGIPPRFSGSGSGTDFTLNIHPVEKVDAATYHCQQSTEDPWTFGGGTKLEIKGGSGGAMAQVQLQQWGAGLLKPSETLSLTCAVYGGSFSRYYWSWIRQSPGKGLEWIGEIKHRGRTNYNPSLKSRVTMSVDTSKNQFSLQLRSVTAADTAVYYCARVYSSGWFSYWGQGTLVTVSSGGGGSGGGGSGGGASNFMLTQPHSVSESPGKTVTISCTRSSGSIARNYVQWYQQRPGSAPTTVIYEDNQRPSGVPDRFSGSIDSSSNSASLTISGLKTEDEADYYCQSYDGSNWVFGGGTKVTVLGQPAAAGGGGSQVQLQQSGAELVRPGSSVKISCKASGYAFSSYWMNWVKQRPGQGLEWIGQIWPGDGDTNYNGKFKGKATLTADESSSTAYMQLSSLASEDSAVYFCARRETTTVGRYYYAMDYWGQGTSVTVSSASAAVECPPCPAPPVAGPSVFLFPPKPKDTLMISRTPEVTCVVVDVSHEDPEVQFNWYVDGVEVHNAKTKPREEQFNSTFRVVSVLTVVHQDWLNGKEYKCKVSNKGLPAPIEKTISKTKGQPREPQVYTLPPSREEMTKNQVSLTCLVKGFYPSDIAVEWESNGQPENNYKTTPPMLDSDGSFFLYSKLTVDKSRWQQGNVFSCSVMHEALHNHYTQKSLSLSPGK | 4.3 pM
309_01_G04 (bispecific antibody) DIQLTQTPASLAVSLGQRATISCKASQSVDYDGDSYLNWYQQIPGQPPKLLIYDASNLVSGIPPRFSGSGSGTDFTLNIHPVEKVDAATYHCQQSTEDPWTFGGGTKLEIKGGSGGAMAEVQLVESGGGVVQPGRSLRLSCAASGFTVSSNYMSWVRQAPGKGLEWVSAISGSGGSTYYADSVKGRFTTSRDNSKNTLYLQMNSLRAEDTAIYYCAKEDYYGGYFDYWGQGTMVTVSSGGGGSGGGGSGGGASNFMLTQPHSVSESPGKTVTISCTRSSGSIASNYVQWYQQRPGSSPTTVIYEDNQRPSGVPDRFSGSIDSSSNSASLTISGLKTEDEADYYCQSYDSSNQAVFGGGTKVTVLGQPAAAGGGGSQVQLQQSGAELVRPGSSVKISCKASGYAFSSYWMNWVKQRPGQGLEWIGQIWPGDGDTNYNGKFKGKATLTADESSSTAYMQLSSLASEDSAVYFCARRETTTVGRYYYAMDYWGQGTSVTVSSASAAVECPPCPAPPVAGPSVFLFPPKPKDTLMISRTPEVTCVVVDVSHEDPEVQFNWYVDGVEVHNAKTKPREEQFNSTFRVVSVLTVVHQDWLNGKEYKCKVSNKGLPAPIEKTISKTKGQPREPQVYTLPPSREEMTKNQVSLTCLVKGFYPSDIAVEWESNGQPENNYKTTPPMLDSDGSFFLYSKLTVDKSRWQQGNVFSCSVMHEALHNHYTQKSLSLSPGK | 2 pM
309_01_G12 (bispecific antibody) DIQLTQTPASLAVSLGQRATISCKASQSVDYDGDSYLNWYQQIPGQPPKLLIYDASNLVSGIPPRFSGSGSGTDFTLNIHPVEKVDAATYHCQQSTEDPWTFGGGTKLEIKGGSGGAMAEVQLVQSGAEVKKPGASVKVSCKASGYTFTGYYMHWVRQAPGQGLEWMGRINPNSGGTNYAQKFQGRVTMTRDTSISTAYMELSRLRSDDAAVYYCARPSRYSNYVDWGQGTTVTVSSGGGGSGGGGSGGGASNFMLTQPHSVSESPGKTVTISCTRSSGSIASNYVQWYQQRPGSAPTTVIYDDDQRPSGVPDRFSGSIDRSSNSASLTISGLKTEDEADYYCQSYDNTNPWVFGGGTKLTVLGQPAAAGGGGSQVQLQQSGAELVRPGSSVKISCKASGYAFSSYWMNWVKQRPGQGLEWIGQIWPGDGDTNYNGKFKGKATLTADESSSTAYMQLSSLASEDSAVYFCARRETTTVGRYYYAMDYWGQGTSVTVSSASAAVECPPCPAPPVAGPSVFLFPPKPKDTLMISRTPEVTCVVVDVSHEDPEVQFNWYVDGVEVHNAKTKPREEQFNSTFRVVSVLTVVHQDWLNGKEYKCKVSNKGLPAPIEKTISKTKGQPREPQVYTLPPSREEMTKNQVSLTCLVKGFYPSDIAVEWESNGQPENNYKTTPPMLDSDGSFFLYSKLTVDKSRWQQGNVFSCSVMHEALHNHYTQKSLSLSPGK | 13.8 pM
